Data published in patent publication US20230203107A1, “PEPTIDE FOR TREATING SEPSIS DERIVED FROM RV3364C PROTEIN OF MYCOBACTERIUM TUBERCULOSIS” (priority 2021, published 2023).

What was measured:
[1] = target: T1, interaction between SNX9 and Rv3364c (Homo sapiens, UniProt Q9Y5X1); type: cell-based
T1 construct: different regions 1-595, 1-250, 250-361, and 392-595 of SNX9; host or cells: 293 / HEK293T

[2] = target: T2, interaction between YEATS4 and Rv3364c (Homo sapiens, UniProt O95619); type: cell-based
T2 construct: host or cells: 293 / HEK293T

[3] = target: T3, interaction between SNX9 and p47phox (Homo sapiens, UniProt Q9Y5X1); type: cell-based; conditions: HEK293T cells, Flag-Rv3364c 1, 5, 10 μg, 12 hours
T3 construct: different regions 1-595, 1-250, 250-361, and 392-595 of SNX9; p47phox plasmid as in Biomaterials 2016, 89, 1-13; host or cells: HEK293T

[4] = target: T4, ZBTB46 (zinc finger and BTB domain-containing 46), full-length recombinant human protein on the HuProt … (human, UniProt Q86UZ6 1-589); assay: HuProt human proteome microarray, biotinylated rRv3364c, streptavidin Alexa Fluor 532
T4 sequence: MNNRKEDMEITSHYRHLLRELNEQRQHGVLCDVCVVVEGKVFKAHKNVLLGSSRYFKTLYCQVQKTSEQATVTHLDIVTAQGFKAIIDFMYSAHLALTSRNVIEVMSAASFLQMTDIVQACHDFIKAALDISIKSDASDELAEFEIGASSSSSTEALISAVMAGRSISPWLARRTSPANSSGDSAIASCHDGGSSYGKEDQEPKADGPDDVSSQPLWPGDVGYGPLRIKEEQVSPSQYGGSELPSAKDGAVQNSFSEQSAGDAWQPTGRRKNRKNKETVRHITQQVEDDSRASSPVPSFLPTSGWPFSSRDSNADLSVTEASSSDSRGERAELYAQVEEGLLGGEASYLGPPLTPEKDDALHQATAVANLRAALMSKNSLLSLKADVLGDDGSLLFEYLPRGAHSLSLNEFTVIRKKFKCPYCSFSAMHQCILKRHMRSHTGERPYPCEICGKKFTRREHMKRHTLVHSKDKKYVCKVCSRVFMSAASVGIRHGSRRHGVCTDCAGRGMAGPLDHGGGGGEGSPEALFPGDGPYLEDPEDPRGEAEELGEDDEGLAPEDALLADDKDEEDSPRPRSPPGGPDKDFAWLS

[5] = target: YEATS4 (YEATS domain-containing protein 4), full-length recombinant human protein on the HuProt microarray (human, UniProt O95619 1-227); assay: as above
[6] = target: SNX9 (sorting nexin 9), full-length recombinant human protein on the HuProt microarray (human, UniProt Q9Y5X1 1-595); assay: as above
[7] = target: T5, endogenous EGFLAM of mouse macrophages (BMDM) (mouse, UniProt Q4VBE4 25-1017); assay: anti-His co-IP from BMDM treated with rRv3364c, anti-EGFLAM blot
T5 sequence: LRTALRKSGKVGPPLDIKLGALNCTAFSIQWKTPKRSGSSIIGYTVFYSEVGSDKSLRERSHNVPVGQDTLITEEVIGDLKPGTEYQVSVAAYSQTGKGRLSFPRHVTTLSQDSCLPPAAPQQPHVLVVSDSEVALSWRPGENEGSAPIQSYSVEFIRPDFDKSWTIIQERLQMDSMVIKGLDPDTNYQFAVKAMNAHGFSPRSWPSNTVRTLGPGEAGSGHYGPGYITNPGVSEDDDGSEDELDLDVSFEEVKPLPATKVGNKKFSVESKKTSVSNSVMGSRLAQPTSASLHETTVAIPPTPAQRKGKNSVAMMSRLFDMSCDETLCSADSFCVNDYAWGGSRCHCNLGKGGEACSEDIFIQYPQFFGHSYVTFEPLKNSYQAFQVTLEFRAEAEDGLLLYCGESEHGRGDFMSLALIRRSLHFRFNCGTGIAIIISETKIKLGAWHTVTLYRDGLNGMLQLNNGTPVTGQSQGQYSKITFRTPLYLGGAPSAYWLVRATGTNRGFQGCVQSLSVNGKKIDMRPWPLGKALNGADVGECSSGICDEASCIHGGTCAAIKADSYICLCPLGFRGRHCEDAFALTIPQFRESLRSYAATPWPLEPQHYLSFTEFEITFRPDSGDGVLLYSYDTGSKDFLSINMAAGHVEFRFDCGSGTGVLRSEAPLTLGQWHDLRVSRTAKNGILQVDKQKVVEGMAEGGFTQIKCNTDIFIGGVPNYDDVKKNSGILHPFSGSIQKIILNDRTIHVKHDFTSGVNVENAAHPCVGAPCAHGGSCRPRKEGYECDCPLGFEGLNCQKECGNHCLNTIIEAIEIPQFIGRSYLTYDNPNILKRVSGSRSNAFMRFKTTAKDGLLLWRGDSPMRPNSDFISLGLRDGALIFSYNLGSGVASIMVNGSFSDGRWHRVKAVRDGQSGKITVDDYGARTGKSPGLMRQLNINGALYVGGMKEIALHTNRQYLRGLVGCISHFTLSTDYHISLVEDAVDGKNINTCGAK

[8] = target: T6, endogenous SNX9 of mouse macrophages (BMDM, Raw264.7) (mouse, UniProt Q91VH2 1-595); assay: anti-His co-IP from BMDM treated with 1 ug/ml rRv3364c, anti-SNX9 blot
T6 construct: also called SNC9

[9] = target: T7, endogenous ZBTB46 of mouse macrophages (BMDM) (mouse, UniProt Q8BID6 1-600); assay: anti-His co-IP from BMDM treated with rRv3364c, anti-ZBTB46 blot
T7 sequence: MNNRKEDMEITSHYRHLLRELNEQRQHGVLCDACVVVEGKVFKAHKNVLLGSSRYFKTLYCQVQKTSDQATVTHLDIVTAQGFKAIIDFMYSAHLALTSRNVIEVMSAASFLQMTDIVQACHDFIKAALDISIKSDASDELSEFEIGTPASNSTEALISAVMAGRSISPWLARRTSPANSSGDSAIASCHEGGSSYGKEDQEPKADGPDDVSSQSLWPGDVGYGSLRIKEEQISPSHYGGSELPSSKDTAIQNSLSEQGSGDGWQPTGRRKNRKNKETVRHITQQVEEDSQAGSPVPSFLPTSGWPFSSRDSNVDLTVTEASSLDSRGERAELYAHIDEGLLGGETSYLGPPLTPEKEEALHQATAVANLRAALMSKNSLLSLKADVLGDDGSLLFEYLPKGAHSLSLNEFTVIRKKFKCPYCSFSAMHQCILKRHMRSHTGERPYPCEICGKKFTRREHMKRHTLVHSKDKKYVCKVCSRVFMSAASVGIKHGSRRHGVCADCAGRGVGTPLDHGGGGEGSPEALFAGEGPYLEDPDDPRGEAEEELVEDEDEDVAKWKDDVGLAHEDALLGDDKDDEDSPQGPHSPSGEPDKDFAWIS

[10] = target: endogenous YEATS4 of mouse macrophages (BMDM, Raw264.7) (mouse, UniProt Q9CR11 1-227); assay: anti-His co-IP from BMDM treated with 1 ug/ml rRv3364c, anti-YEATS4 blot
endogenous YEATS4 of mouse macrophages (BMDM, Raw264.7), sequence (Q9CR11 whole entry): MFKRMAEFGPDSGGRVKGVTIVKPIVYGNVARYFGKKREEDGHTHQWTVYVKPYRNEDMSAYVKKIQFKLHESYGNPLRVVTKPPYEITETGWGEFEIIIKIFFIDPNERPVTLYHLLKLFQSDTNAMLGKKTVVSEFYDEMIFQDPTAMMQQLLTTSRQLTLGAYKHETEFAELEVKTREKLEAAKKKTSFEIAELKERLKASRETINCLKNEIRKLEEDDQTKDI

T1 sequence (Q9Y5X1 whole entry): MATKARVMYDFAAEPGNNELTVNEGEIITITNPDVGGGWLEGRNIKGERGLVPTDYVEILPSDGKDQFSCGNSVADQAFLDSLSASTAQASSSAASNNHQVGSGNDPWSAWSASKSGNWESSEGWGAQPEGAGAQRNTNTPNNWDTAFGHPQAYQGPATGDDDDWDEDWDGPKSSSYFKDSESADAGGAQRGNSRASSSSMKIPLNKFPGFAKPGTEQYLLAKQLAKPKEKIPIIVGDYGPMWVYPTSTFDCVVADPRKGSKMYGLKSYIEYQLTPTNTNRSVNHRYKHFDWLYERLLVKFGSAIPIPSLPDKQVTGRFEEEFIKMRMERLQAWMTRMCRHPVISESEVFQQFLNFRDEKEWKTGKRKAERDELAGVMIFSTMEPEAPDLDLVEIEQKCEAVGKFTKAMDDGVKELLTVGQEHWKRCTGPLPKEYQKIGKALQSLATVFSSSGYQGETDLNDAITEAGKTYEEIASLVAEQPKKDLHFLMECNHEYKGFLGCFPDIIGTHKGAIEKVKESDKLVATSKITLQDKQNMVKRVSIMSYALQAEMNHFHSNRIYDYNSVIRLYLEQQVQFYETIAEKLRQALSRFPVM
YEATS4 (YEATS domain-containing protein 4), full-length recombinant human protein on the HuProt microarray, sequence (O95619 whole entry, the tested form may be a part): as the sequence (Q9CR11 whole entry) above, with T224A counted along it
T2 sequence (O95619 whole entry): as the sequence (Q9CR11 whole entry) above, with T224A counted along it
T6 sequence (Q91VH2 whole entry): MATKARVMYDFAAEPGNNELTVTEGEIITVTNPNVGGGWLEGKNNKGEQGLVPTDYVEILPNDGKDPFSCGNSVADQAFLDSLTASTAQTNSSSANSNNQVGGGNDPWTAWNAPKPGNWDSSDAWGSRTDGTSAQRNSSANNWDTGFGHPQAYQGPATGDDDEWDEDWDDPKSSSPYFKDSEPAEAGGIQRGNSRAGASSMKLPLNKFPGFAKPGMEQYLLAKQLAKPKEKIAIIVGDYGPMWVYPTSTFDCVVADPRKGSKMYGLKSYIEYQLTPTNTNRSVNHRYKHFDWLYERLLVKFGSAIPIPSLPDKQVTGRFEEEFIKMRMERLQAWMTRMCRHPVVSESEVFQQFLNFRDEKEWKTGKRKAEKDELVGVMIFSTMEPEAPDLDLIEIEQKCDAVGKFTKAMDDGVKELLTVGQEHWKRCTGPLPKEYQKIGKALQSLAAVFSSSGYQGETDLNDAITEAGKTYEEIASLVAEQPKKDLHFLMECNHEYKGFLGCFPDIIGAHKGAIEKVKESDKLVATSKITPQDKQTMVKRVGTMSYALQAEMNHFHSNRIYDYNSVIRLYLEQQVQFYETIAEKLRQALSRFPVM
T3 sequence (Q9Y5X1 whole entry): as the sequence (Q9Y5X1 whole entry) above
SNX9 (sorting nexin 9), full-length recombinant human protein on the HuProt microarray, sequence (Q9Y5X1 whole entry): as above

Molecule: DWLVSKFARE [Tat-Rv3364c (11DWLVSKFARE20)]
- blocking of the interaction between SNX9 and Rv3364c ([1]; 293 cells with Myc-SNX9 and Flag-Rv3364c, peptide 5 μM, 12 hours): block the interaction between SNX9 and Rv3364c

Molecule: MKARLPDSPL [Tat-Rv3364c (1MKARLPDSPL10)]
- blocking of the interaction between YEATS4 and Rv3364c [2]: block the interaction between YEATS4 and Rv3364c

Molecule: Rv3364c: Rv3364c protein of Mycobacterium tuberculosis, expressed in 293T cells from a Flag-tagged plasmid
- interaction between SNX9 and p47phox [3]: decreased as the amount of Rv3364c increased

Molecule: WLVSKF (Rv3364c(12-17 aa)) [12WLVSKF17]
- region of Rv3364c required for interaction with SNX9 ([1]; FIG. 5): minimum peptide essential for interaction with SNX9

B1: recombinant Rv3364c (rRv3364c) protein, N-terminal 6xHis tag (other)
chain: MKARLPDSPLDWLVSKFAREVPGVAHALLVSVDGLPVAASEHLPRERADQLAAVTSGLASLAGGAAQLFDGGQVLQSVVEMQNGYLLLMQVGDGSALAALAATGCDIGQIGYEMAILVERVGGVVQSCRR
notes: also called His-rRv3364c; not shown: N-terminal 6xHis tag from the pRSFDuet-1 vector
- binding result [4]: binds
- binding result [5]: binds
- binding result [6]: binds
- binding result [7]: no binding (tested: 1 ug/ml rRv3364c)
- binding result [8]: binds
- binding result [9]: no binding (tested: 1 ug/ml rRv3364c)
- binding result [10]: binds
